{
  "source": "the DeepSol protein solubility set",
  "data": [
    {"test": "soluble on expression in E. coli; label from the status in PepcDB or PDB records", "values": [
      {"sequence": "MGSDKIHHHHHHMTSIVFNGSYITKKNTGVGVVSKDLLYSLSANKITTLIPKDLDIKGDIYIPNNLSPGTGLKSHFRRLYWLQNSVPKLMNNLNAEYFLSPLLEAPLFSNIKSIVLAHDLIPIRYPSVSFLTLYYLIYIPLILKQSKLILCNSVSTANDLHRFYKVPMHKLFPIKLGFNNKKYYPIKKIRKKFFLIIGRHNPHKNLRRVIKAFAYSKINDYKLIFVGPFDKRHTPSLLKLIDKHNIRHLCVWKGWIDDDEKLSLLNECHALIIASLWEGFGLPALEAMACGTPVIASDRGALREVMGNYGYFINPFNIQSIACAMNAVINDKKCFENALQEGPSRAESFNWLDTARTIEKIIQEID", "soluble on expression in E. coli": "not soluble"},
      {"sequence": "LDPPSGELSLPEDIPGEAKVYFDDEGVPYIHASSDEAAFYAAGWVHASLRLFQMDVFRRVGLGELSGLVGEAGLEADRRAAILGLRSVVDAEWRHIQNNPEFGEIVRIVEAYTAGVNGYISYALKTGRLPVEYRVLGVKPSPWLPQDTLAMAKVLALMLSYSEDDLILDRLVRKWGPEVIADFDIVGRSLNMPHASCDMAVDWGDVTGLEGPYNPLLSVEERREPLHESEPLDLGYNPDPEIIAAVVDRVLYMLSWNAASNNWVVSGSLTVSGNPLLANDPHLSLTAPGIWLPIVISSPSYSLAGVTIPGVPLVVIGRNSHVAWGFTNVGSDFTDFYRYQWVDENRYFYKGRIFGVEKSSIEAYVWDPLARSYRVQEISVARTIHGPVIEWQGEKFAVSYTSARPTFEMIFLWLLNKASSVRDALSAQRYFYGPPQNMVVADSAGNIAYSPVGAYPERATLPTIETGYGPIVNTGFLPFDGSAGEGEWRGFKPYSSLPVLFNPPQGFVATANSKPFEDGCWDGLGWDYADRFRTERIYTLLQERSAEEPLDAGDMRDIQLDVEDLGLKTLVSLMVRVASGDGGHVLERYMDMLAEWAENPQM", "soluble on expression in E. coli": "not soluble"},
      {"sequence": "MKLASPKPFTFEGGDRAVLLLHGFTGNSADVRMLGRFLEKKGYTCHAPIYKGHGVPPEELVHTGPEDWWQDVTEAYQLLKDKGFEKIAVVGLSLGGVFSLKLGYTVPVLGVVPMCAPMYIKSEETMYQGILAYAREYKKREQKSPEQIEQEMLEFQKTPMNTLKALQQLIADVRNNVDMIYVPTFVVQARHDEMINTDSANIIYNGVESTLKDIKWYEDSTHVITLDKQRDELHEDVYNFLEQLDW", "soluble on expression in E. coli": "not soluble"},
      {"sequence": "MQRVAISTLGCKINQFESAAMTESLGREGFRVVPFDEDADIYVINTCTVTAKTDAESRRLIRRALRRNPAARVVVTGCYAQVAPDAVKDLPGVALVVGNSEKRSIGELLRDAAPAEKVMVSDISRERTAEGLRLESFAEHTRAFLQVQNGCDAFCSYCIVPYARGRSRSVSFSEALAGIRNFAAQGFREVVLTGIHLGAYGLDLAPPTNLLALLEASEAEKAVPRLRVGSVEPNELTDALVDFLARSETVCPHLHIPLQSGDDRVLERMGRRYTAAFFRERVERLVAVVPDIFIGCDVIAGFPGETDEEFQNTVRLIEELPVASLHVFPYSRREGTAAARMEGQVDGKVIRGRAEILREVGERKRRSFCERFVGRELAVLMQNRGRDGEAVGLSRNYLPVRVPGYAGEMNAEATVMVTEVTPDGVGGIIRGLEHHHHHH", "soluble on expression in E. coli": "soluble"},
      {"sequence": "MGSDKIHHHHHHMEVKVGLAPMAGYTDSAFRTLAFEWGADFAFSEMVSAKGFLMNSQKTEELLPQPHERNVAVQIFGSEPNELSEAARILSEKYKWIDLNAGCPVRKVVKKGAGGALLKDLRHFRYIVRELRKSVSGKFSVKTRLGWEKNEVEEIYRILVEEGVDEVFIHTRTVVQSFTGRAEWKALSVLEKRIPTFVSGDIFTPEDAKRALEESGCDGLLVARGAIGRPWIFKQIKDFLRSGKYSEPSREEILRTFERHLELLIKTKGERKAVVEMRKFLAGYTKDLKGARRFREKVMKIEEVQILKEMFYNFIKEV", "soluble on expression in E. coli": "not soluble"},
      {"sequence": "MSLSGRAGRHERTGEVIVQSYNPEHYSIEFAKKHDFIGFYNHEMQLRKMGSYPPFYYLTMINVSDENEMKAIRTIQEMAQFLRGKLGPDAVILGPVPSTITRIKNKYRYQCIIKYKIEPNLKKELKTLITHYQKDQQKGLTITIDVQPYVLMEGHHHHHH", "soluble on expression in E. coli": "soluble"},
      {"sequence": "MAHHHHHHSLSQVILDLQLACENHAGLPDEAQFQRWLDGVIPQFQEEAEVTIRLVDEAESHDLNLTYRGKDKPTNVLSFPFEAPPGIEMPLLGDLIICRQVVEQEAQEQSKPLEAHWAHMVVHGSLHLLGYDHIDDDEAEEMESLETEIMLAMGYEDPYIAEKIAE", "soluble on expression in E. coli": "soluble"},
      {"sequence": "MIDIHCHILPAMDDGAGDSADSIEMARAAVRQGIRTIIATPHHNNGVYKNEPAAVREAADQLNKRLIKEDIPLHVLPGQEIRIYGEVEQDLAKRQLLSLNDTKYILIEFPFDHVPRYAEQLFYDLQLKGYIPVIAHPERNREIRENPSLLYHLVEKGAASQITSGSLAGIFGKQLKAFSLRLVEANLIHFVASDAHNVKTRNFHTQEALYVLEKEFGSELPYMLTENAELLLRNQTIFRQPPQPVKRRKLFGFF", "soluble on expression in E. coli": "not soluble"},
      {"sequence": "MHHHHHHGKPIPNPLLGLDSTENLYFQGIDPFTEFMDSTDLFDVFEETPVELPTDSNGEKNADTNVGDTPDHTQDKKHGLEEEKEEHEENNSENKKIKSNKSKTEDKNKKVVVPVLADSFEQEASREVDASKGLTNSETLQVEQDGKVRLSHQVRHQVALPPNYDYTPIAEHKRVNEARTYPFTLDPFQDTAISCIDRGESVLVSAHTSAGKTVVAEYAIAQSLKNKQRVIYTSPIKALSNQKYRELLAEFGDVGLMTGDITINPDAGCLVMTTEILRSMLYRGSEVMREVAWVIFDEVHYMRDKERGVVWEETIILLPDKVRYVFLSATIPNAMEFAEWICKIHSQPCHIVYTNFRPTPLQHYLFPAHGDGIYLVVDEKSTFREENFQKAMASISNQIGDDPNSTDSRGKKGQTYKGGSAKGDAKGDIYKIVKMIWKKKYNPVIVFSFSKRDCEELALKMSKLDFNSDDEKEALTKIFNNAIALLPETDRELPQIKHILPLLRRGIGIHHSGLLPILKEVIEILFQEGFLKVLFATETFSIGLNMPAKTVVFTSVRKWDGQQFRWVSGGEYIQMSGRAGRRGLDDRGIVIMMIDEKMEPQVAKGMVKGQADRLDSAFHLGYNMILNLMRVEGISPEFMLEHSFFQFQNVISVPVMEKKLAELKKDFDGIEVEDEENVKEYHEIEQAIKGYREDVRQVVTHPANALSFLQPGRLVEISVNGKDNYGWGAVVDFAKRINKRNPSAVYTDHESYIVNVVVNTMYIDSPVNLLKPFNPTLPEGIRPAEEGEKSICAVIPITLDSIKSIGNLRLYMPKDIRASGQKETVGKSLREVNRRFPDGIPVLDPVKNMKIEDEDFLKLMKKIDVLNTKLSSNPLTNSMRLEELYGKYSRKHDLHEDMKQLKRKISESQAVIQLDDLRRRKRVLRRLGFCTPNDIIELKGRVACEISSGDELLLTELIFNGNFNELKPEQAAALLSCFAFQERCKEAPRLKPELAEPLKAMREIAAKIAKIMKDSKIEVVEKDYVESFRHELMEVVYEWCRGATFTQICKMTDVYEGSLIRMFKRLEELVKELVDVANTIGNSSLKEKMEAVLKLIHRDIVSAGSLYL", "soluble on expression in E. coli": "soluble"},
      {"sequence": "YTSLIRRVEHAVDSDGSFETGNEVKLSGVGVIGTDERFERVGETYASYYGYESEELVGKHWSELHPSNEVQHIRTHVIPAVRSGGKWTGQSKGLRADETTFTESKMVTALEDGRMLIAVDEIDDSGLAE", "soluble on expression in E. coli": "not soluble"},
      {"sequence": "MDFLNDFDPSDDENNCKHQEKPTYLPFKPNFHEKYWYRNALKENQTATAITEIDLFRVADCYHNGDFECAENILTGLRESTKNNRTHEIMLIDSLLQCSIKKTSELSSPETSISLQFLSYYESILVDFGDQIQFLRTKAFLLSKLPFTSNYQKEFKNTMALLCQLCGSFENWQLFEIGSKYFTKLEMFGLKLKMKKVLKYEIDHSKGFIQEKLKKRLEKITKELNELEGELESNIIESIHSSINSHKDTTTVESTPNSEFRAHESRSKNKLIPVSDQPATIEDFFHRFPFLSF", "soluble on expression in E. coli": "not soluble"},
      {"sequence": "MGSDKIHHHHHHMNSLQSTHPPKLNSCDRQVILDYFENAWQLEDMLMKTLVEEDTFYLNPDPLRNPLIFYLGHSAVFYINKLISVGLLEKRINPDYEILFEIGVDPEVPEELNQAIAHLEWPQVAQTWEYRKQAYTVIAEVIKTTPITLPIHPTHPLWALMMGIEHQRIHIETSSMLIRQLPIERVKRPQNWQYAPFNGYTAQNEMIQVIGGVVKLGKAFNDPTYGWDIDYGDRTVEVEPFLASKYLITNADFSYFVKAGGYENQAYWDEESWHWKTENNIQYPKFWIHQNGIYKYRAMFDEIDLPLDWPVEVNHYEAMAYCCWQGKDTRLMSEAEYHLATYGSGLVEDVDNYNVNLKFGSPSPVGMLETAKSYSGLYDLRGNVWEHLSDNLNPLPGYKPHFLYEDNSAIFFDNKHQMMLGGCWITNGTEALKYYRNWFRPNFYQHAGFRIVQDMKH", "soluble on expression in E. coli": "not soluble"},
      {"sequence": "GMGISNIKQLYSKWKSLQPLKPEDLKRWNDKFKLEFNYNSNHLEGNTLTYGQTKLLLMFGETSGNASLKDYEEMKAHNVGLEMIKQEAQDKERPLTESFIRELNRTILVQDYWKNAKTPDGQDIRMQIKVGEYKSRPNSVLTATGEVFSYASPEETPAFMTSLVDWYNLEADKGILTPVELAALLHYRYIRIHPFEDGNGRIARLLVNFVLHRYGYPMIVIHSEDKSNYLNILHQCDVEAGLTPSDGANATLNDILPFVNYLSSCLIRSLTLAIKAAKGESIEEEGDFDKK", "soluble on expression in E. coli": "soluble"},
      {"sequence": "MPDEATKGSATIPPSSSTPFWWREKRSPKVQYHRSAYPRSRSSDADCRQGNEGMNFIAKHFFEYQSFMNIPHKAVHLHKVPASQAGTDPSMGWAPKNMLKAGKHQPAPGARANRVHRDPRPNGTKYGRAGKHEHREWGDRHGELRDEKVACHKDAWTKFLANDDQGARTAFECDFEDRVLATEEETLQEKLCRTSPEAMNLNALYAAANKAVSCGGDVCELLTILTYAPTVQFVTTTVKKAKALPYNNAPFARIMLFEGRRLMEQKQTTVNPSLVHKSSVDGSKPSSSSASTSSNDNPSDVSFSESFLFHVPPTKLDRSHIVIELYDHDDEGGLQKIGHCVIGRLVDGTGNAHWIQMVRQHGLPVCMWHKIGHN", "soluble on expression in E. coli": "not soluble"},
      {"sequence": "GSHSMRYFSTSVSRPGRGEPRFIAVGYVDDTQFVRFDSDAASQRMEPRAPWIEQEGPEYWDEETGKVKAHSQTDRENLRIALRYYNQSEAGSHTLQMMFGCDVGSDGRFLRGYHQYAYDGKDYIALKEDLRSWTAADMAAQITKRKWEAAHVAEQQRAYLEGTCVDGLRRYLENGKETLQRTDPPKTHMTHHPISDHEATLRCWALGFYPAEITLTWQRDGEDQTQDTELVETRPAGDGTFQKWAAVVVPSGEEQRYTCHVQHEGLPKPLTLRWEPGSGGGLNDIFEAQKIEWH", "soluble on expression in E. coli": "soluble"},
      {"sequence": "MGSQSETVCVTGASGFIGSWLVMRLLERGYTVRATVRDPTNVKKVKHLLDLPKAETHLTLWKADLADEGSFDEAIKGCTGVFHVATPMDFESKDPENEVIKPTIEGMLGIMKSCAAAKTVRRLVFTSSAGTVNIQEHQLPVYDESCWSDMEFCRAKKMTAWMYFVSKTLAEQAAWKYAKENNIDFITIIPTLVVGPFIMSSMPPSLITALSPITGNEAHYSIIRQGQFVHLDDLCNAHIYLFENPKAEGRYICSSHDCIILDLAKMLREKYPEYNIPTEFKGVDENLKSVCFSSKKLTDLGFEFKYSLEDMFTGAVDTCRAKGLLPPSHEKPVDGKT", "soluble on expression in E. coli": "soluble"}
    ]}
  ]
}
